Experimental data from patent publication US6989362.

System: phospho-Thr75 DARPP-32

Substance: purified catalytic subunit of cAMP-dependent protein kinase (PKA)
- phosphorylation of Thr34 DARPP-32 by PKA in vitro: The ability of PKA to phosphorylate Thr34 DARPP-32 in vitro was virtually abolished by prior phosphorylation at Thr75
